# From the DeepSol protein solubility set
# Assay: soluble on expression in E. coli; label from the status in PepcDB or PDB records
row,Sequence,soluble on expression in E. coli
1,MSTTTDYDDNDVKIITKPVQSKNPVLIEGFPGIGLVGNIASQHIIEELNMEYIGSIDSRYFPSIAVLYEGLINMPVRIYENVEHNLIIVISDIPISHSVSYDVSNALVDWAEAINVKEIASIAGIAIMDGGHKVFGAATTPEMLDKIRDKVEIFQMGTISGISGSVMAECLLRGIPAISLLGATRTQNPDPRAASSVIGVLNELYGLSISTDRLIEQAERIEIELQRLAEDVQATERKGEVKKEFPMYG,soluble
2,MRTLRIAQYSVLTVGFAIYMYRLIEEIPIDIRNLNSDSLEGIINSDELCDVTVSNRNRGLLVRNDSLDLDILKAKFTTFFSKR,not soluble
3,MLNADLKQQLKQLLELMEGNVEFVASLGSDDKSKELKDLLTEITDMSPRLSLSEKSLKRTPSFSVNRPGEETGVTFAGIPLGHEFNSLVLAILQVSGRAPKEKQSIIDQIKKLEGSFHFETFISLTCQKCPDVVQALNLMSVINPNITHSMIDGAVFREESENIMAVPAVFLNGEEFGNGRMTIQDILSKLGSTADASEFENKEPYDVLIVGGGPASGSAAIYTARKGLRTGIVADRIGGQVNDTAGIENFITVKETTGSEFSSNLAAHIDQYDIDAMTGIRATDIEKTDEAIKVTLENGAVLESKTVIIATGAGWRKLNIPGEEQLINKGVAFCPHCDGPLFENKDVAVIGGGNSGVEAAIDLAGIVNHVTLFEFASELKADNVLQDRLRSLSNVDIKTNAKTTEVVGEDHVTGIRYEDMNTGEEHLLNLDGIFVQIGLLPNTSWLNDAVELNERGEIVIDRNNNTNVPGIFAAGDVTDQKNKQIIISMGAGANAALNAFDYIIRN,not soluble
4,SASMDVEEFIGQNRQLADRVEAFRGFSESDKHWKGRREFIFRNMADFPEPQVDHLLALSMVWQNHVFMGCRYSSELLQRVMEMAEGIEVEDAPVFKTRDEIIRQQKQR,soluble
5,MQIMGLLEDKALVEAALFVAGRPLSVKELSKALGIKSLDYLEKLIELIASEYAERKSAIEVTKVAGDKWVMQVKQEYSQRVIHLMPKPELTAGELKTLALIAFLQPVEQSKIVKLRGSQAYEHIKRLLEMGLIYAEPYERTKLLGTTEKFAELYGFPENDPNLIREKFREVIHAEYEDLVKKLEETEANRNNPTT,soluble
6,MSIESIRNVIAKDMGEVDNVIQQKLHSQVALVRQVSEYIIHSGGKRLRPALVILAAGLFDYKGLHHHNLAAVVEFIHTATLLHDDVVDESELRRNQATANALFGNAASVLVGDFLYSRAFQMMVEVGNMRVMEVLADATNTIAEGEVLQLLNCRDPDVEEENYLQVIRFKTAKLFEAAARLGAILGGATPAEEEALAAYGMHLGTAFQLVDDLLDYSGNDQDTGKNLGDDLAEGKPTLPLIFAMRSGIPEQVDTVRHAIETGGKDGFEPILKIIQESGALDYAKQCAQNEANMAISAITAIRDSIYKQCLLELAEFAITRNY,not soluble
7,MGSDKIHHHHHHMRIAILSQGPELYSTKRLVEAATLRGHEVKVINPLECYMNINMRQSSIHIGGEELPPFDAVIPRIGASITFYGSAVLRQFEMMGVYALNDSVGISRSRDKLRSMQLMSRRGIGLPITGFANKPSDIPDLIDMVGGAPLVIKLLEGTQGIGVVLAETRKAAESVIEAFMGLKANIMVQEYIKEANGADIRCFVLGDKVVAAMKRQAMPGEFRSNLHRGGTASLVKLTPEERSVAIRAAKTMGLNVAGVDLLRSNHGPLVMEVNSSPGLEGIEGATAKDVAGAIIEFVEKNALKTKKPTQA,not soluble
8,MFLVDSHCHLDGLDYESLHKDVDDVLAKAAARDVKFCLAVATTLPGYLHMRDLVGERDNVVFSCGVHPLNQNDPYDVEDLRRLAAEEGVVALGETGLDYYYTPETKVRQQESFIHHIQIGRELNKPVIVHTRDARADTLAILREEKVTDCGGVLHCFTEDRETAGKLLDLGFYISFSGIVTFRNAEQLRDAARYVPLDRLLVETDSPYLAPVPHRGKENQPAMVRDVAEYMAVLKGVAVEELAQVTTDNFARLFHIDASRLQSIR,soluble
9,MSLATESDETSLDFPDHALERVRDILRLRRNFDISSYKDKYLKRRIAIRVRATRSVTADAYCDLVARNERELELLLKGLTIHVSQFFRNSSTFEALRGTVLPAIFDRLRREGRDSATFWSVGCASGEEPYSLAIILRDSFRESLKEFKVSLVATDIDGGILDAARAGIYSPERLAEVPAEVKDRYFRPMGERFVLDPTIREMVDFRRSDLFDPESSVESDLILCRNVLIYFERSEQARILRGFVSSLCTGGVLVLGKAETLVAEVRQRFTTLCPMERIYQKNRFSVYEGHHHHHH,soluble
10,MGSDKIHHHHHHMRQPDHDDERAQCFAGFAPESIAHYLEHVWLGTPNPVEEPALADDRTASLAVIPVSELAGRRTELLDAMVTLYGGERETHARALLSQWTKYYFGFTATAGFVAAALLRRPLAMSPDNTHIVLRDGLPIAAYFARDALQPVECDPARRYAPLVEHLNAVIEMLCTMTRIAPRVLWSNAGNLLDYLFEQCAPQFDLSEDIAWLFGPLAANGEANPLRLPVRQAKPRAASLPNPFSARRVCCVRYEIPGETQLCGRCPLLLTMSDAEIALQAASQ,not soluble
11,MLSIKDLHVSVEDKAILRGLSLDVRPGEVHAIMGPNGSGKSTLSATLAGREDYEVTGGTVEFKGKDLLALSPEDRAGEGIFMAFQYPVEIPGVSNQFFLQTALNAVRSYRGQETLDRFDFQDLMEEKIALLKMPEDLLTRSVNVGFSGGEKKRNDILQMAVLEPELCILDESDSGLDIDALKVVADGVNSLRDGKRSFIIVTHYQRILDYIKPDYVHVLYQGRIVKSGDFTLVKQLEEQGYGWLTEQQ,not soluble
12,GGTAYWKNPDQFTAFNTGLHALLREKSYNFFLLGEPRADIYGDNPIGGEASQGMERLPFNTINKENVGISNYGDMYKIINQINQMIAKTTETTILTEATQNYYLGEAYGMRAYLYFHLLRSWGDVVLYLDYTEGQNLDLSNITKGVSPATEVMEQIKKDIQASENAFGSDYSFKLGRHFWSAAATQMLKGEAYLWSGRQMNGGNSDYTIAKNAFENVKKADVGLVTSSFKDIFSFENKKNKEMIFTIHNGKDEYEMWGGYYRMRLIPAQDKMVKIYCDENGNSFVGTPDAQLNGLTQLQVRREFYFKGFRNNDTRWTTSLKAVYKKDAQGVVSYFGPITYKFQGTMLEGGSTRSFLDDFPIYRYADCLLQLAMAKVLLGEDPTEEINAVRERAYGSKYFNEHKAEIAYPNDNDPEFYTDNKWMKPDNAGALEAILKERLREFMFEGKRWYDIRLLGWDYVHQYSSAEQSRLLWPIDAGTLTNNSALKQTPGYE,soluble
13,MEYLDEIKTLGLKPNTITYSMLMLASERKDDFEVSFKLLSQAKGDGVSPNLIMCRCITSLCKRRFEKACAGGEPVVSFKSGRPQIENKWTSMALMVYRETISGGTVPTTEVVSQVLGCLQLPHDAALRDRLISTLGINISSQKQHNIFPLVDGFGEYDPRAFSLLEEATSLGVLPSVSFNKIPLFFDTTELPKNVAEVYLLTIFKGLKHRLAAGAKIPHINLIISIQEKEIRTPEGEKTIDLTGRVGQEIGALLRRGFKIIASTIRKPNQSSATQHSTREPVT,not soluble
14,MGSDKIHHHHHHMRIHVLCDDSSQNGFESEHGFSVLVDSVLFDTGKSDVFLKNARKLGIDLPKDVLISHGHYDHAGGLLYLSGKRVWLRKEALDQKYSGERYAGADWNEVLYYNTGKFVIERITEIGKNMFLLGPANLRGKVPTGDFFVERNGERRKDLFEDEQTLVVRTKEGLVVITGCSHRGIDNILLDIAETFNERIKMVVGGFHLLKSSDDEIEKIVKAFNELGVETVVPCHCTGERAVDIFKREFLGKIMDCYAGLKLEVSD,soluble
15,MPTGKSESSDISEVVGNMEISKVEGLEACIGMSHEVSTTPAAELAAFRARKVALITGISGQDGSYLAELLLSKGYKVHGIIRRSSSFNTARIEHLYSNPITHHGDSSFSLHYGDMTDSSCLIKLISTIEPTEVYHLAAQSHVKVSFDLPEYTAEVDAVGTLRLLDAIHACRLTEKVRFYQASTSELYGKVQEIPQSEKTPFYPRSPYAVAKMYGYWIVVNYREAYNMFACNGILFNHESPRRGETFVTRKITRSVAKISLGQQESIELGNLSALRDWGHAREYVEAMWRILQHDSPDDFVIATGKQFSVREFCNLAFAEIGEVLQWEGEGVEEVGKNKDGVIRVKVSPKYYRPTEVETLLGNAEKAKKTLGWEAKVTVPELVKEMVASDIILMKSNPMA,not soluble
16,ATITIETCEDPGDWTAAIGDDTFTFWRGLKDAGLLDEVIQEFHQELVETMRGLQQRVQDPPLQLRDAVLLNNIVQNFGMLDLVKKVLASHKCQMDRSREQYARDLAAL,soluble
